From patent US20010010923A1, “MODIFIED CARBOXYPEPTIDASE” (priority 1997, published 2001)
“Also recorded” adds a separate entry of the source. Marks after values point to notes of the source that are not given here.

B1: M398E: carboxypeptidase Y S1' mutant, substitution M398E (protein, UniProt P00729 112-532, looked up, variant M398E)
Carboxypeptidase Y: KIKDPKILGIDPNVTQYTGYLDVEDEDKHFFFWTFESRNDPAKDPVILWLNGGPGCSSLTGLFFELGPSSIGPDLKPIGNPYSWNSNATVIFLDQPVNVGFSYSGSSGVSNTVAAGKDVYNFLELFFDQFPEYVNKGQDFHIAGESYAGHYIPVFASEILSHKDRNFNLTSVLIGNGLTDPLTQYNYYEPMACGEGGEPSVLPSEECSAMEDSLERCLGLIESCYDSQSVWSCVPATIYCNNAQLAPYQRTGRNVYDIRKDCEGGNLCYPTLQDIDDYLNQDYVKEAVGAEVDHYESCNFDINRNFLFAGDWMKPYHTAVTDLLNQDLPILVYAGDKDFICNWLGNKAWTDVLPWKYDEEFASQKVRNWTASITDEVAGEVKSYKHFTYLRVFNGGHEVPFDVPENALSMVNEWIHGGFSL
B2: T60V: carboxypeptidase Y S1' mutant, substitution T60V (protein, UniProt P00729 112-532, looked up, variant T60V)
Carboxypeptidase Y: KIKDPKILGIDPNVTQYTGYLDVEDEDKHFFFWTFESRNDPAKDPVILWLNGGPGCSSLVGLFFELGPSSIGPDLKPIGNPYSWNSNATVIFLDQPVNVGFSYSGSSGVSNTVAAGKDVYNFLELFFDQFPEYVNKGQDFHIAGESYAGHYIPVFASEILSHKDRNFNLTSVLIGNGLTDPLTQYNYYEPMACGEGGEPSVLPSEECSAMEDSLERCLGLIESCYDSQSVWSCVPATIYCNNAQLAPYQRTGRNVYDIRKDCEGGNLCYPTLQDIDDYLNQDYVKEAVGAEVDHYESCNFDINRNFLFAGDWMKPYHTAVTDLLNQDLPILVYAGDKDFICNWLGNKAWTDVLPWKYDEEFASQKVRNWTASITDEVAGEVKSYKHFTYLRVFNGGHMVPFDVPENALSMVNEWIHGGFSL
B3: T60W: carboxypeptidase Y S1' mutant, substitution T60W (protein, UniProt P00729 112-532, looked up, variant T60W)
Carboxypeptidase Y: KIKDPKILGIDPNVTQYTGYLDVEDEDKHFFFWTFESRNDPAKDPVILWLNGGPGCSSLWGLFFELGPSSIGPDLKPIGNPYSWNSNATVIFLDQPVNVGFSYSGSSGVSNTVAAGKDVYNFLELFFDQFPEYVNKGQDFHIAGESYAGHYIPVFASEILSHKDRNFNLTSVLIGNGLTDPLTQYNYYEPMACGEGGEPSVLPSEECSAMEDSLERCLGLIESCYDSQSVWSCVPATIYCNNAQLAPYQRTGRNVYDIRKDCEGGNLCYPTLQDIDDYLNQDYVKEAVGAEVDHYESCNFDINRNFLFAGDWMKPYHTAVTDLLNQDLPILVYAGDKDFICNWLGNKAWTDVLPWKYDEEFASQKVRNWTASITDEVAGEVKSYKHFTYLRVFNGGHMVPFDVPENALSMVNEWIHGGFSL
B4: T60L: carboxypeptidase Y S1' mutant, substitution T60L (protein, UniProt P00729 112-532, looked up, variant T60L)
Carboxypeptidase Y: KIKDPKILGIDPNVTQYTGYLDVEDEDKHFFFWTFESRNDPAKDPVILWLNGGPGCSSLLGLFFELGPSSIGPDLKPIGNPYSWNSNATVIFLDQPVNVGFSYSGSSGVSNTVAAGKDVYNFLELFFDQFPEYVNKGQDFHIAGESYAGHYIPVFASEILSHKDRNFNLTSVLIGNGLTDPLTQYNYYEPMACGEGGEPSVLPSEECSAMEDSLERCLGLIESCYDSQSVWSCVPATIYCNNAQLAPYQRTGRNVYDIRKDCEGGNLCYPTLQDIDDYLNQDYVKEAVGAEVDHYESCNFDINRNFLFAGDWMKPYHTAVTDLLNQDLPILVYAGDKDFICNWLGNKAWTDVLPWKYDEEFASQKVRNWTASITDEVAGEVKSYKHFTYLRVFNGGHMVPFDVPENALSMVNEWIHGGFSL
B5: N51Q + M398L: carboxypeptidase Y mutant N51Q + M398L (protein, UniProt P00729 112-532, looked up, variant N51Q M398L)
Carboxypeptidase Y: KIKDPKILGIDPNVTQYTGYLDVEDEDKHFFFWTFESRNDPAKDPVILWLQGGPGCSSLTGLFFELGPSSIGPDLKPIGNPYSWNSNATVIFLDQPVNVGFSYSGSSGVSNTVAAGKDVYNFLELFFDQFPEYVNKGQDFHIAGESYAGHYIPVFASEILSHKDRNFNLTSVLIGNGLTDPLTQYNYYEPMACGEGGEPSVLPSEECSAMEDSLERCLGLIESCYDSQSVWSCVPATIYCNNAQLAPYQRTGRNVYDIRKDCEGGNLCYPTLQDIDDYLNQDYVKEAVGAEVDHYESCNFDINRNFLFAGDWMKPYHTAVTDLLNQDLPILVYAGDKDFICNWLGNKAWTDVLPWKYDEEFASQKVRNWTASITDEVAGEVKSYKHFTYLRVFNGGHLVPFDVPENALSMVNEWIHGGFSL
B6: T60F + M398F: carboxypeptidase Y double substitution mutant T60F + M398F (protein, UniProt P00729 112-532, looked up, variant T60F M398F)
Carboxypeptidase Y: KIKDPKILGIDPNVTQYTGYLDVEDEDKHFFFWTFESRNDPAKDPVILWLNGGPGCSSLFGLFFELGPSSIGPDLKPIGNPYSWNSNATVIFLDQPVNVGFSYSGSSGVSNTVAAGKDVYNFLELFFDQFPEYVNKGQDFHIAGESYAGHYIPVFASEILSHKDRNFNLTSVLIGNGLTDPLTQYNYYEPMACGEGGEPSVLPSEECSAMEDSLERCLGLIESCYDSQSVWSCVPATIYCNNAQLAPYQRTGRNVYDIRKDCEGGNLCYPTLQDIDDYLNQDYVKEAVGAEVDHYESCNFDINRNFLFAGDWMKPYHTAVTDLLNQDLPILVYAGDKDFICNWLGNKAWTDVLPWKYDEEFASQKVRNWTASITDEVAGEVKSYKHFTYLRVFNGGHFVPFDVPENALSMVNEWIHGGFSL

Key:
Type in all cases: biochemical
[1] = Transpeptidation of FA-Ala-Xaa-OH with H-Gly-NH2, Table 2; details: for Fraction of aminolysis (fa), P1' Ala: FA-Ala-Ala-OH 0.2 mM; for Fraction of aminolysis (fa), P1' Ala / Fraction of aminolysis (fa), P1' Leu / Fraction of aminolysis (fa), P1' Met / Fraction of aminolysis (fa), P1' Phe / Fraction of aminolysis (fa), P1' Val: 1.9 M H-Gly-NH2, pH 7.5, room temperature; for Fraction of aminolysis (fa), P1' Leu: FA-Ala-Leu-OH 0.2 mM; for Fraction of aminolysis (fa), P1' Met: FA-Ala-Met-OH 0.2 mM; for Fraction of aminolysis (fa), P1' Phe: FA-Ala-Phe-OH 0.2 mM; for Fraction of aminolysis (fa), P1' Val: FA-Ala-Val-OH 0.2 mM; for fraction of aminolysis compared to wild type, in words: larger, hydrophobic leaving group such as leucine
Procedure: (§1) Transamidation reactions were carried out generally as described in PCT Application WO 95/20039. In general, the method included dissolving the nucleophile (H-Leu-NH2, unless otherwise indicated) in 50 mM HEPES, 5 mM EDTA and adjusting the pH to 7.5, 5 μl of peptide substrate (8 mM Bz-G-A-R-A-R-A-OH, unless otherwise indicated, in methanol) was added to 190 μl nucleophile solution followed by 5 μl enzyme, resulting in a substrate concentration of 0.2 mM.
(§2) During the reaction, 20 μl aliquots were removed from the reaction mixture and added to 50 μl 1% trifluoroacetic acid to quench the reaction. The reactant composition was determined by HPLC using a Waters HPLC equipped with a C-18 Waters Novapac 4μ reverse phase column and various gradients of acetonitrile in 0.1% trifluoroacetic acid. The separation was monitored at 254 nm allowing the direct quantification of the products from the integrated peak areas. The composition of the reaction mixture was determined at least twvice during the reaction, the first when 20-50% (preferably 35%) of the substrate had been consumed in the reaction and the second time when 50-90% (preferably 80%) of the peptide substrate had been consumed.
(§3) The fraction of aminolysis (fa) was expressed as the ratio between the formed aminolysis product and the sum of all products formed. Unconsumed substrate was disregarded in the calculations.
Site specific mutagenesis was performed as described for Example 1 to produce the S1 mutants used below.
Transamidation reactions were performed as described for Example 1.

[2] = Transpeptidation of FA-Ala-OBzl with H-Leu-NH2, Table 3; details: for fa: H-Leu-NH2; for change in famax and KN(app), in words: compared with wild type, Table 3
Procedure: as §1, §2, §3
Site specific mutagenesis was performed as described in Example 1 to produce the specific substitution mutants described below. Transamidation reactions were performed as described for Example 1.
In table 3, below, KN(app) represents the nucleophile concentration at which fa is half of the maximum value (a measure for the dissociation constant of the nucleophile). famax is the highest possible fa obtained at saturation of the enzyme with the nucleophile.
KN(app) indicates the concentration at which famax/2 is reached and thus describes the apparent binding constant of the nucleophile. Because the competing hydrolysis reaction is thought to occur while the leaving group remains attached to the to the acyl-enzyme intermediate, a low KN(app) is preferred.

[3] = Transpeptidation of Bz-G-A-R-A-R-X-OH at pH 7.5 at 50% substrate consumption, Table 4; parameters: key to fa: fraction: aminolysis product / sum of all products formed; details: for Pmax (peak product yield) / fa: 375 mM H-Leu-NH2; for fa / t: 50% substrate consumption; for t: 375 mM H-Leu-NH2, 2 mM substrate, [E] 0.1 mg/mL
Procedure: as §1, §2, §3
Site specific mutagenesis was performed as described for Example 1 to generate the specific mutants described below. Transamidation reactions were performed as described for Examples 1.

Molecule | Fraction of aminolysis (fa), P1' Ala [1] | Fraction of aminolysis (fa), P1' Leu [1] | Fraction of aminolysis (fa), P1' Met [1] | Fraction of aminolysis (fa), P1' Phe [1] | Fraction of aminolysis (fa), P1' Val [1] | fraction of aminolysis compared to wild type, in words [1] | fa ([2]; FA-Ala-OBzl 0.2 mM, pH 7.5) | change in famax and KN(app), in words [2] | KN(app) ([2]; nucleophile H-Leu-NH2 concentration at which fa is half of maximum, FA-Ala-OBzl 0.2 mM, pH 7.5) | Pmax (peak product yield) ([3]; leaving group A) | fa ([3]; leaving group A) | t ([3]; leaving group A) | Pmax (peak product yield) ([3]; leaving group L) | fa ([3]; leaving group L) | t ([3]; leaving group L)
B1 | 0.92 | 0.84 | 0.74 | 0.71 | 0.82 | improvement in fraction of aminolysis obtained; also recorded: most dramatic improvement; also recorded: enhanced transpeptidation | 0.97^a | increase in famax while decreasing KN(app) | 0.93^a mM |  |  |  |  |  | 
B2 | 0.94 | 0.15 | 0.17 | 0.08 | 0.29 |  | 0.97^a | increase in both famax and KN(app) |  |  |  |  |  |  | 
B3 | 0.93 | 0.45 | 0.49 | 0.47 | 0.39 | improvement in fraction of aminolysis obtained; also recorded: most effective at increasing the fraction of aminolysis | 0.96^a | increase in both famax and KN(app) |  |  |  |  |  |  | 
B4 | 0.91 | 0.13 | 0.08 | 0.24 | 0.17 |  | 1.0^b | increase in both famax and KN(app) |  |  |  |  |  |  | 
B5 |  |  |  |  |  |  |  |  |  | >0.07 | 0.18 | 3200 min | >0.04 | 0.10 | 3500 min
B6 | 0.86 | 0.86 | 0.82 | 0.66 | 0.73 | further improved the fraction of aminolysis |  |  |  |  |  |  |  |  | 
